The values below come from patent publication US20230071422A1 (BEIJING WISDOMAB BIOTECHNOLOGY, published 2023).

Numbering of substitutions follows the chain as printed.

Assay [1] concerns the target T1, CD123 on the surface of CD123-positive cells (KG-1a, MV-4-11) (human, UniProt P26951 19-378).
T1 construct: whole, on cells; Endogenous CD123 on KG-1a (human acute myeloid leukemia) and MV-4-11 (human acute monocytic leukemia) cells; also called cell surface CD123 antigen; CD123 on the surface of MV-4-11 cells
The experiment in a line: flow cytometry titration on MV-4-11 cells, goat anti-human IgG-FITC secondary antibody. Here is the method:
(§1) MV-4-11 cells at the logarithmic phase of growth were used and resuspended to 2×10⁶ cells/well with PBS buffer containing 1% BSA after centrifugation. MV-4-11 cells were plated in a 96-well V-bottom plate at 100 μL/well, and the supernatant was removed after centrifugation. […] The antibodies were added to the wells containing cells and incubated at 4° C. for 1 hour. Then, the plate was washed three times with 200 μL PBS buffer. The goat anti-human IgG-FITC secondary antibody (ZF-0308, ZSGB-BIO) was added to the wells (100 μL/well), and incubated at 4° C. for 30 minutes in the dark. Then, the cells were washed three times with 200 μL of PBS buffer, and resuspended in 100 μL of PBS buffer to detect FITC channel by flow cytometer (ACEA, Novocyte).
In general terms: A flow cytometer gives signals particle by particle.

For assay [2], the target named is T2, extracellular region of human CD123 subtype 1 with C-terminal His tag (hCD123-SP1-his) (human (Homo sapiens), UniProt P26951 19-305).
T2 construct: Recombinant, expressed in HEK293 cells
T2 sequence: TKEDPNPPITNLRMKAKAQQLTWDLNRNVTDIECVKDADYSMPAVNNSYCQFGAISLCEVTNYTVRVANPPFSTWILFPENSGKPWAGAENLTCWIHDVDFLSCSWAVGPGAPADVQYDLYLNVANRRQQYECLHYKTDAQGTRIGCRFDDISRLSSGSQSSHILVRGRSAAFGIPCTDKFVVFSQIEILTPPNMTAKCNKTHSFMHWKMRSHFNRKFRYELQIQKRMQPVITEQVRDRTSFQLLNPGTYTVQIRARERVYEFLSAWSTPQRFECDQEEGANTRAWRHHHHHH
The experiment in a line: SPR, Biacore X100; antibody captured by anti-human IgG (Fc), hCD123-SP1-his as analyte, 1:1 model. Here is the method:
(§2) The affinity of anti-CD123 antibodies was determined by surface plasmon resonance using Biacore X100. Related reagents and consumables such as Amino Conjugation Kit (BR-1000-50), Human Antibody Capture Kit (BR-1008-39), CM5 Chip (BR100012) and 10×HBS-EP (BR100669) buffer with pH 7.4 were all purchased from GE healthcare. According to the instructions in the kits, 1-Ethyl-3-(3-dimethylaminopropyl) carbodiimide hydrochloride (EDC) and N-Hydroxysuccinimide (NHS) was used to activate the surface of the carboxylated CM5 chip, and the anti-human IgG (Fc) antibody (capture antibody) was diluted to 25 μg/mL with 10 mM, pH5.0 sodium acetate, followed by an injection with a flow rate at 10 μL/min to achieve a coupling volume of approximately 10,000 response units (RU). Following the injection of the capture antibody, 1 M ethanolamine was injected to block unreacted groups. […] The chip surface was regenerated by injecting 3M MgCl₂ solution at 10 μL/min for 30 s. Association rates (Kₒₙ) and dissociation rates (Koff) were calculated from association and dissociation sensorgrams fitted by a 1:1 binding model using Biacore X100 evaluation software version 2.0.1. The dissociation equilibrium constant (KD) was calculated as the ratio Koff/Kₒₙ.
A general note: Surface plasmon resonance follows binding to a sensor surface in real time, without labels.

Assay [3] deals with T2, extracellular region of human CD123 …. The assay is described as above. Here is the method:
as §2
This is another data set of the same source.

Assay [4] addresses T1, CD123 on the surface of CD123-positive …. The experiment in a line: flow cytometry on MV-4-11 cells, titration from 100 nM, goat anti-human IgG-FITC; MV-4-11 cells, flow cytometry titration (apparent KD). Here is the method: as §1, with “MV-4-11” for “MV-4-11 cells at the logarithmic phase of growth were used and resuspended to 2×10⁶ cells/well with PBS buffer containing 1% BSA after centrifugation. MV-4-11”

The target of assay [5] is T3, extracellular region of human CD3E with C-terminal His tag (hCD3E-his) (human (Homo sapiens), UniProt P07766 23-126).
T3 construct: Recombinant, expressed in HEK293 cells
Briefly: SPR, Biacore X100; antibody captured by anti-human IgG (Fc), hCD3E-his as analyte, 1:1 model. Here is the method:
(§3) The chip surface was regenerated by injecting 3M MgCl₂ solution at 10 μL/min for 30 s. Association rates (Kₒₙ) and dissociation rates (Koff) were calculated from association and dissociation sensorgrams fitted by a 1:1 binding model using Biacore X100 evaluation software version 2.0.1. The dissociation equilibrium constant (KD) was calculated as the ratio Koff/Kₒₙ.

For assay [6], the target named is T4, extracellular region of cynomolgus monkey CD3E with C-terminal His tag (mfCD3E-his) (cynomolgus monkey (Macaca fascicularis), UniProt Q95LI5 22-117).
T4 construct: Recombinant, expressed in HEK293 cells
T4 sequence: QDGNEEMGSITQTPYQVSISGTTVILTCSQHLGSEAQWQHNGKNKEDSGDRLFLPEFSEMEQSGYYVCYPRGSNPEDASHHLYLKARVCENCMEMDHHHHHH
Briefly: SPR, Biacore X100; antibody captured by anti-human IgG (Fc), mfCD3E-his as analyte, 1:1 model. Here is the method:
as §3

Assay [7] has as its target T3, extracellular region of human CD3E with …. The experiment in a line: SPR, Biacore X100; antibody captured by anti-human IgG (Fc) on CM5, hCD3E-his as analyte, 1:1 model, 25 C. Here is the method: as §3
The target of assay [8] is T2, extracellular region of human CD123 …. Briefly: phage display, solid-phase screening on hCD123-SP1-His, three rounds.
For assay [9] the target is unchanged. Briefly: SPR, Biacore X100; antibody captured by anti-human IgG (Fc) on CM5, hCD123-SP1-his as analyte, 1:1 model, 25 C. Here is the method:
as §2

T3 sequence (P07766 other isoform, or with tags, fused parts or gaps limits assumed): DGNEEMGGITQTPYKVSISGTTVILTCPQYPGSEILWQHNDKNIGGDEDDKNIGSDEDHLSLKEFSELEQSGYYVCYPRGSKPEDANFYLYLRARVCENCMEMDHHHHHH

B1: anti-CD123 monoclonal antibody H7A3-h2-m5+L27E5 (antibody, V domains shown)
VH: QVQLVQSGAEVKKPGASVKVSCKASGYTFTSYDVSWVRQAPGQRLEWMGWVYPVDGSTKFNEKFKGRVTLTADRSSSTAYMELSSLRSEDTAVYYCARLTYGDFGDAMDYWGQGTLVTVSS
VL: DIVMTQTPLSLSVTPGQPASISCKSSQSLVHSNDNTYLTWYLQKPGQSPQLLIYKVSNRFSGVPDRFSGSGSGTDFTLKISRVEAEDVGVYYCGQGTQYPFTFGQGTKLEIK
notes: Expressed as a whole antibody of human IgG1 with the common light chain L27E5; also called H7A3 humanized version H7A3-h2-m5
As a reminder, the EC50 (read off the curve) is the concentration that produces a half-maximal response. One may read the koff as the rate constant with which the complex falls apart. As usually defined, the kon is the second-order rate constant of association. For B1, the half-maximal effective concentration (EC50 (read off the curve)) in [1] was roughly 3 nM. In [2], this molecule registered a Kd of 0.22 nM, an off-rate constant (koff) of 5.14e-05 s⁻¹ and an on-rate constant (kon) of 234000 M⁻¹ s⁻¹. Moreover, in assay [3], the Kd was 0.244 nM, the koff was determined as 7.67e-05 s⁻¹ and the association rate constant (kon) was determined as 314000 M⁻¹ s⁻¹. For the same molecule, the Kd in assay [4] was 3.1 nM.

B2: S8F3VH+L27E5 (antibody, V domains shown)
VH: QVQLQQSGAELAKPGASVKISCKASGYTFTSYDVSWVKQRPGQGLEWIGWVYPVDGSTKFNEKFKGKATLTADRSSSTAYMQLTSLTSEDSAVYFCARLRYGNYGDAMDDWGQGTSVTVSA
VL: B1 VL
notes: built from the label (S8F3VH heavy chain variable region with the L27E5 light chain)
In [2], B2 gave a Kd of 3.32 nM, a koff of 0.000146 s⁻¹ and a kon of 43800 M⁻¹ s⁻¹.

B3: anti-CD3E monoclonal antibody H3B8+L27E5 (antibody, V domains shown)
VH: EVQLVESGGGLVQPGGSLRLSCAASGFTFSNAWMHWVRQAPGKGLEWVGQIKDKSNNYATYYADAVKGRFTISRDDSKNSLYLQMNSLKTEDTAVYYCRYVHYGVRFFYTMDVWGQGTTVTVSS
VL: B1 VL
notes: captured by an anti-human IgG (Fc) antibody in SPR; also called WM03-C6 humanized monoclonal antibody
Regarding B3, the Kd in assay [5] worked out at 12.7 nM; in [6], 5.26 nM; in [7], 47.6 nM. The koff in assay [5] amounted to 0.000711 s⁻¹; in assay [6], 0.000649 s⁻¹; in assay [7], 0.000993 s⁻¹. Further, the kon in [5] worked out at 56100 M⁻¹ s⁻¹; in [6], 123000 M⁻¹ s⁻¹; in assay [7] it was 20800 M⁻¹ s⁻¹.

B4: H7A3+L27E5 (antibody, V domains shown)
VH: B2 VH with R100T, N103D, Y104F, D110Y
VL: B1 VL
notes: Whole antibody: H7A3 variable region fused to a human heavy chain constant region, combined with the L27E5 light chain; also called S8F3 heavy chain mutant H7A3
With B4, in assay [2], the Kd stood at 0.246 nM, the koff was 6.64e-05 s⁻¹ and the kon worked out at 270000 M⁻¹ s⁻¹. In assay [3], this molecule had a Kd of 0.226 nM, a koff of 6.89e-05 s⁻¹ and a kon of 305000 M⁻¹ s⁻¹.

B5: anti-human CD123 single chain fragment variable S8F3 (scFv)
scFv: QVQLQQSGAELAKPGASVKISCKASGYTFTSYDVSWVKQRPGQGLEWIGWVYPVDGSTKFNEKFKGKATLTADRSSSTAYMQLTSLTSEDSAVYFCARLRYGNYGDAMDDWGQGTSVTVSAGGGGSGGGGSGGGGSDVVMTQTPVSLSVSLGDQVSISCRPSQSLVHNNGNTYLSWYLQKPGQSPHPLIYKVSNRFSGISDRFSGSGSGTDFTLKISRVEPDDLGVYYCGQGTQYPFTFGSGTKLEIK
Take B5: the binding result in [8] is “binds”.

B6: control bispecific antibody Xmab14045 (bispecific antibody)
heavy: QVQLQQSGAEVKKPGASVKVSCKASGYTFTDYYMKWVKQSHGKSLEWMGDIIPSNGATFYNQKFKGKATLTVDRSTSTAYMELSSLRSEDTAVYYCARSHLLRASWFAYWGQGTLVTVSSASTKGPSVFPLAPSSKSTSGGTAALGCLVKDYFPEPVTVSWNSGALTSGVHTFPAVLQSSGLYSLSSVVTVPSSSLGTQTYICNVNHKPSDTKVDKKVEPKSCDKTHTCPPCPAPPVAGPSVFLFPPKPKDTLMISRTPEVTCVVVDVKHEDPEVKFNWYVDGVEVHNAKTKPREEEYNSTYRVVSVLTVLHQDWLNGKEYKCKVSNKALPAPIEKTISKAKGQPREPQVYTLPPSREEMTKNQVSLTCDVSGFYPSDIAVEWESDGQPENNYKTTPPVLDSDGSFFLYSKLTVDKSRWEQGDVFSCSVMHEALHNHYTQKSLSLSPGK
scFv: not shown
light: not shown
Turning to B6, the Kd in assay [5] is 0.65 nM; in assay [6] it was 0.935 nM.

B7: monoclonal antibody WM03-C6 (antibody, V domains shown)
VH: EVQLVETGENLVQPGKSLRLTCATSGFSFSNAWMHWIRQSPEKQLEWVAQIKDKSNNYATYYAESVNGRFTISRDDSKSSIYLHMDNLKEEDSAIYYCRYVHYGVRFFYTMDVWGQGTSVTVSS
VL: DVVMTQTPVSLSVSLGDQVSISCRPSQSLVHNNGNTYLSWYLQKPGQSPHPLIYKVSNRFSGISDRFSGSGSGTDFTLKISRVEPDDLGVYYCGQGTQYPFTFGSGTKLEIK
notes: also called rat monoclonal antibody WM03-C6; 20E5-F10 of WO 2016/116626 A1
In assay [7], B7 returned a Kd of 10.6 nM, an off-rate constant (koff) of 0.000288 s⁻¹ and a kon of 27200 M⁻¹ s⁻¹.

B8: S8F3VH+C6VK (antibody, V domains shown)
VH: B2 VH
VL: B7 VL
notes: Whole antibody: variable regions fused to a human heavy chain constant region and a light chain constant region; also called recombinant anti-CD123 monoclonal antibody
In [9], B8 came in with a Kd of 8.03 nM, a koff of 0.00365 s⁻¹ and a kon of 455000 M⁻¹ s⁻¹.
